{"source": "patent CN110563849A", "about": "(ANHUI RUBIOX VISION BIOTECHNOLOGY CO LTD, dated 2019)", "binders": {"B1": {"name": "双特异性抗体Vs3P4 (dsFv-VEGF-linker-PD1-H chain结构) (bispecific antibody, human IgG4 S228P, kappa)", "heavy": "not shown", "light": "DIQMTQSPSSLSASVGDRVTITCRASQDINTYLAWFQQKPGKAPKSLIYRANRLVSGVPSRFSGSGSGTDFTLTISSLQPEDMATYYCLQYDEFPLTFGAGTKLELKRTVAAPSVFIFPPSDEQLKSGTASVVCLLNNFYPREAKVQWKVDNALQSGNSQESVTEQDSKDSTYSLSSTLTLSKADYEKHKVYACEVTHQGLSSPVTKSFNRGEC", "notes": "Expressed in 293F cells; also called 抗VEGF-抗PD1双特异性抗体"}}, "target": "T1, PD-1-mFc (人PD-1胞外区加Fc纯化标签) (human, UniProt Q15116 25-170)", "T1 construct": "extracellular domain;domain: Fc; also called PD-1抗原; PD-1蛋白; not shown: mFc, Fc purification tag (mouse Fc)", "T1 sequence (Q15116 25-170)": "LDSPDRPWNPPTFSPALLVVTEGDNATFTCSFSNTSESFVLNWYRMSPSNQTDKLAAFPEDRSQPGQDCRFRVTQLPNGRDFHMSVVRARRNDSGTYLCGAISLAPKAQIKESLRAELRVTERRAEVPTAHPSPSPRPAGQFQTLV", "experiment": "competition ELISA, PD-1-mFc coated, competitor PDL-1-hFc"}
{"binder": "B1", "values": [{"measurement": "binding result", "value": "binds"}]}
